Source: paper PMC3706991

What was measured:
[1] = target: CD27 (human (endogenous in CD4+ T cells of blood donors)) (UniProt P26842)
[2] = target: CD27 (human (endogenous in CD4+ T cells of blood donors)) (UniProt P26842); remark: listed apart in the source

Sequence of UniProt P26842 (P26842 20-260): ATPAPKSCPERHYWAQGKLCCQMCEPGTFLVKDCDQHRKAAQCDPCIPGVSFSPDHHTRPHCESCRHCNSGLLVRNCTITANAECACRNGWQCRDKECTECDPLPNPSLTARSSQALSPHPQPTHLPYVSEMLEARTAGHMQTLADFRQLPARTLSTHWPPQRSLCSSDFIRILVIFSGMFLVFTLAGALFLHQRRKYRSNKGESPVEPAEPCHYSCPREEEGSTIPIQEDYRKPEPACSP

B1: CD70 (ligand)
chain: MPEEGSGCSVRRRPYGCVLRAALVPLVAGLVICLVVCIQRFAQAQQQLPLESLGWDVAELQLNHTGPQQDPRLYWQGGPALGRSFLHGPELDKGQLRIHRDGIYMVHIQVTLAICSSTTASRHHPTTLAVGICSPASRSISLLRLSFHQGCTIASQRLTPLARGDTLCTNLTGTLLPSRNTDETFFGVQWVRP
50%: decrease in FasL expression level on CD4+ T cells (FACS) in co-culture with HB1.F3 after addition of anti-CD27 mAb [1] | HB1.F3 (NSC)-mediated apoptosis of CD4+ T cells (Annexin V/PI, FACS) in co-culture with anti-CD27 blocking mAb (LG.7F9), 0-1 ug/ml [2] | HB1.F3 (NSC)-mediated apoptosis of CD4+ T cells (Annexin V/PI, FACS) in co-culture with anti-CD70 blocking mAb (BU69), 0-1 ug/ml [2]
